# Laboratory results published in paper PMC10205607, “MAP4K3 inhibits Sirtuin-1 to repress the LKB1–AMPK pathway to promote amino acid-dependent activation of the mTORC1 complex” (Life Science Alliance, 2023).
# T1: FLAG-LKB1 (UniProt Q15831 1-433)
# T1 construct: Liver kinase B1 (LKB1); also called liver kinase B1; source: HEK293A (WT or MAP4K3 k.o.), transfected, in lysate
# T1 sequence (looked up): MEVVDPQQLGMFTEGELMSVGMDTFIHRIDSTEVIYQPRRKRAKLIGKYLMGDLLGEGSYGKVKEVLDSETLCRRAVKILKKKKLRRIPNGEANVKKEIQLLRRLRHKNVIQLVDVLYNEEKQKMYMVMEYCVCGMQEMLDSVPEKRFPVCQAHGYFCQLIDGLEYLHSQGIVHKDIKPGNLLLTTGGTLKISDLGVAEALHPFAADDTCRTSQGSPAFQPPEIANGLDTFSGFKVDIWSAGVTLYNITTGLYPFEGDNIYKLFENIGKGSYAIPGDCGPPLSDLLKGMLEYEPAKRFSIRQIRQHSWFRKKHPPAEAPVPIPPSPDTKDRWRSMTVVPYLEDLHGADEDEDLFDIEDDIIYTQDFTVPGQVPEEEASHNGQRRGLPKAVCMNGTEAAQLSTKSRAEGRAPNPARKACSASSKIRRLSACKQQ
# Target: T1, FLAG-LKB1
# Assay: co-IP; anti-FLAG IP from lysates of co-transfected HEK293A cells (WT or MAP4K3 k.o.), blot with anti-HA and anti-FLAG; lysis buffer 25 mM HEPES-KOH pH 7.4, 150 mM NaCl, 5 mM EDTA, 1% Triton X-100; 2 h at 4°C
# Details: partners not purified
binder,measurement,value
"SIRT1-HA-T344D (enzyme, UniProt Q96EB6 1-747, looked up, Derived from the SIRT1-HA construct; also called SIRT1-T344D; SIRT1-T344D-HA; source: MAP4K3 k.o; HEK293A (M4 line), transfected, in lysate) MADEAALALQPGGSPSAAGADREAASSPAGEPLRKRPRRDGPGLERSPGEPGGAAPEREVPAAARGCPGAAAAALWREAEAEAAAAGGEQEAQATAAAGEGDNGPGLQGPSREPPLADNLYDEDDDDEGEEEEEAAAAAIGYRDNLLFGDEIITNGFHSCESDEEDRASHASSSDWTPRPRIGPYTFVQQHLMIGTDPRTILKDLLPETIPPPELDDMTLWQIVINILSEPPKRKKRKDINTIEDAVKLLQECKKIIVLTGAGVSVSCGIPDFRSRDGIYARLAVDFPDLPDPQAMFDIEYFRKDPRPFFKFAKEIYPGQFQPSLCHKFIALSDKEGKLLRNYDQNIDTLEQVAGIQRIIQCHGSFATASCLICKYKVDCEAVRGDIFNQVVPRCPRCPADEPLAIMKPEIVFFGENLPEQFHRAMKYDKDEVDLLIVIGSSLKVRPVALIPSSIPHEVPQILINREPLPHLHFDVELLGDCDVIINELCHRLGGEYAKLCCNPVKLSEITEKPPRTQKELAYLSELPPTPLHVSEDSSSPERTSPPDSSVIVTLLDQAAKSNDDLDVSESKGCMEEKPQEVQTSRNVESIAEQMENPDLKNVGSSTGEKNERTSVAGTVRKCWPNRVAKEQISRRLDGNQYLFLPPNRYIFHGAEVYSDSEDDVLSSSSCGSNSDSGTCQSPSLEEPMEDESEIEEFYNGLEDEPDVPERAGGAGFGTDGDDQEAINEAISVKQEVTDMNYPSNKS",fold change of the co-precipitate against WT SIRT1 with LKB1 (in MAP4K3 k.o. cells),~2 fold
